Data on one substance can be found in paper PMC8092228 (mBio, 2021).

The experiment has as its target LOV construct of Brucella abortus LOV-HK with the Nα helix, the LOV core and half of the Jα helix (wild type) (Brucella abortus). As to the kind of experiment: SEC with static light scattering (SEC-SLS).

On to “LOV construct of Brucella abortus LOV-HK with the Nα helix, the LOV core and half of the Jα helix (wild type) (domain or fragment)”, for which the stoichiometry N turned out to be 2.
